The text below walks through data of PMC4917298 (Nature immunology, 2016).

The test has as its target S6K1(WT)-HA (mouse, UniProt Q8BSK8-2 1-502). Briefly: co-IP.

Chain of S6K1(WT)-HA (Q8BSK8 24-525): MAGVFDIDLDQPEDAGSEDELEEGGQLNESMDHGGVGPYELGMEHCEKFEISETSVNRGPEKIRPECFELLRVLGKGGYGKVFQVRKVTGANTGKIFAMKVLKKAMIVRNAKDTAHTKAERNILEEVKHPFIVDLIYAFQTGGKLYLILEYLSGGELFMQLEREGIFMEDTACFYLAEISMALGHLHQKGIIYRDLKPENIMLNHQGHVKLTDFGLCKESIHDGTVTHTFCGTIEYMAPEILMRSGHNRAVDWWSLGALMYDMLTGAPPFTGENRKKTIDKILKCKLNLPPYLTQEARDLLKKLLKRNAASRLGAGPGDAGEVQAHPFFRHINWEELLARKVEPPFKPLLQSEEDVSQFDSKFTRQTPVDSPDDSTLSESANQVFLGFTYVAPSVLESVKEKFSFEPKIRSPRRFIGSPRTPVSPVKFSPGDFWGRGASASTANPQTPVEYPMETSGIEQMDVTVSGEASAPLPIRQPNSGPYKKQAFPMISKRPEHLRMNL

B1: phosphorylated STING-Flag (phosphorylated by TBK1) (natural protein, mouse, UniProt Q3TBT3 1-378, looked up)
chain: MPYSNLHPAIPRPRGHRSKYVALIFLVASLMILWVAKDPPNHTLKYLALHLASHELGLLLKNLCCLAEELCHVQSRYQGSYWKAVRACLGCPIHCMAMILLSSYFYFLQNTADIYLSWMFGLLVLYKSLSMLLGLQSLTPAEVSAVCEEKKLNVAHGLAWSYYIGYLRLILPGLQARIRMFNQLHNNMLSGAGSRRLYILFPLDCGVPDNLSVVDPNIRFRDMLPQQNIDRAGIKNRVYSNSVYEILENGQPAGVCILEYATPLQTLFAMSQDAKAGFSREDRLEQAKLFCRTLEEILEDVPESRNNCRLIVYQEPTDGNSFSLSQEVLRHIRQEEKEEVTMNAPMTSVAPPPSVLSQEPRLLISGMDQPLPLRTDLI
modifications: phosphorylated by TBK1 (slower mobility, removed by calf intestine phosphatase); sites not stated
For the molecule B1, the binding result is recorded as “binds”.
